According to paper PMC4155686, “Oleoyl Coenzyme A Regulates Interaction of Transcriptional Regulator RaaS (Rv1219c) with DNA in Mycobacteria*” (The Journal of Biological Chemistry, 2014):
Numbering of substitutions follows the chain as printed. Names may count otherwise.

B1: RaaS (Rv1219c) R144A mutant (natural protein)
chain: MRSADLTAHARIREAAIEQFGRHGFGVGLRAIAEAAGVSAALVIHHFGSKEGLRKACDDFVAEEIRSSKAAALKSNDPTTWLAQMAEIESYAPLMAYLVRSMQSGGELAKMLWQKMIDNAEEYLDEGVRAGTVKPSRDPRARAAFLAITGGGGFLLYLQMHENPTDLRAALRDYAHDMVLPSLEVYTEGLLADRAMYEAFLAEAQQGEAHVG
B2: RaaS (Rv1219c) Y174A mutant (natural protein)
chain: B1 chain with A144R, Y174A
B3: Pr14F/Pr14R (ATTO 647N) (dsDNA)
DNA 1: GGGATGAACGTACGTTTAATATCCTGAACATGCGTTCAG
DNA 2: GGGCTGAACGCATGTTCAGGATATTAAACGTACGTTCAT

How the values were obtained:
[1] = target: the molecule itself; assay: small-angle X-ray scattering; protein alone in solution at 1 and 3 mg/ml, data extrapolated to infinite dilution; apparent molecular mass from I(0)
RaaS R144A = target: T1, RaaS R144A (Mycobacterium tuberculosis, UniProt O86312 1-212, R144A); assay: fluorescence anisotropy; 4 nM DNA; FA: 50 mM Tris-HCl pH 8.5, 150 mM NaCl, temperature not stated; EMSA: 50 mM Tris-HCl pH 8.0, 1 mM EDTA, 50 mM NaCl, 4% glycerol, sheared salmon sperm DNA (printed as 1 g per reaction), 10 min, room temperature; details: protein: recombinant; chain copies: 2
T1 sequence: B1 chain

RaaS Y174A = target: T2, RaaS Y174A (Mycobacterium tuberculosis, UniProt O86312 1-212, Y174A); assay: as above; details: protein: recombinant; chain copies: 2
T2 sequence: B1 chain with A144R, Y174A

RaaS R140A = target: T3, RaaS R140A (Mycobacterium tuberculosis, UniProt O86312 1-212, R140A); assay: fluorescence anisotropy; 4 nM DNA; details: protein: recombinant; chain copies: 2
T3 sequence: B1 chain with R140A, A144R

Row | Binder | stoichiometry N [1] | Kd (RaaS R144A) | Kd (RaaS Y174A) | Kd (RaaS R140A)
1 | B1 | 2 |  |  | 
2 | B2 | 2 |  |  | 
3 | B3 |  | 129 ± 70 nM | 611 ± 120 nM | 654 ± 300 nM
